Laboratory results taken from US20110217318A1 (MOCHIDA PHARMACEUTICAL, published 2011).

T1: human platelet membrane glycoprotein VI (GPVI) on human platelets (human, UniProt Q9HCN6 21-339)
T1 construct: whole, on cells
T1 sequence (looked up): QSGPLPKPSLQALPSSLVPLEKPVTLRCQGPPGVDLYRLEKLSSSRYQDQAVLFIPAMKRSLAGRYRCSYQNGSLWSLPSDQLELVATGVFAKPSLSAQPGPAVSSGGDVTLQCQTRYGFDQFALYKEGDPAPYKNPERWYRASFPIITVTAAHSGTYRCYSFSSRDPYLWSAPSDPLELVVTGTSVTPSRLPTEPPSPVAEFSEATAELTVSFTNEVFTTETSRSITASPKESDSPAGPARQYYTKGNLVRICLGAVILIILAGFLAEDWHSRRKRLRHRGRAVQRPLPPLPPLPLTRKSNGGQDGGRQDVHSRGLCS

T2: cynomolgus monkey GPVI on cynomolgus monkey platelets (cynomolgus monkey, UniProt A0A2K5VXN2 21-318)
T2 construct: whole, on cells; also called simian platelets
T2 sequence: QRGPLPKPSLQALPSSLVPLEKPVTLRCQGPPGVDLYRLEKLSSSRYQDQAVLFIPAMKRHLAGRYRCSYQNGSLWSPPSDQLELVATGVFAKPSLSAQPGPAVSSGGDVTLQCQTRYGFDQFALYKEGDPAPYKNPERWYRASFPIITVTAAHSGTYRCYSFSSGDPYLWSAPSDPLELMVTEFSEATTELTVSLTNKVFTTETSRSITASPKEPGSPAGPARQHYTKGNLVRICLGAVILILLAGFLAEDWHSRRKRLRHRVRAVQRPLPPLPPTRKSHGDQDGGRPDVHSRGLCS


Legend:
[1] = molecular target: T3, mouse GPVI extracellular region-human Fc fusion protein (mGPVI-hFc) (mouse); test: competition ELISA, soluble GPVI-Fc against immobilised hGPVI-hFc
T3 construct: whole fusion entry; also called GPVI-MMM-hFc; mouse GPVI-Fc
Method: To the plate, wherein hGPVI-hFc has been immobilized at 4 μg/mL, a mixture of peroxidase-labeled F1232-37-2 or cF1232-37-2 by the method described in EXAMPLE 14, and hGPVI-hFc, mGPVI-hFc, hGPVI-mL3-hFc, wherein these were prepared in EXAMPLE 7, or hGPVI-K59E-hFc (a fusion protein consisting of one amino acid mutated human GPVI extracellular region, wherein lysine at 59 of human GPVI is substituted for glutamic acid, and human Fc), which has been prepared by the same method as that of EXAMPLE 1 and diluted with 0.1% BSA/PBS was added, and the plate was incubated at 37° C. for one hour. After incubation, the mixture was developed using TMB solution, and absorbance at 450 nm was measured.

[2] = molecular target: T1, human platelet membrane glycoprotein VI …; test: homologous competitive binding of 125I-labelled antibody on washed human platelets, n=3, mean±S.E.
Method: (§1) ACD-A (acid citrate-dextrose) was added to the PRPs prepared from citrated blood obtained from healthy human or cynomolgus monkey to adjust the pH to 6.5. The obtained PRPs were collected by centrifugation at 2,000 rpm. The pelleted platelets were washed with HEPES Buffer (pH was adjusted to 6.5 with ACD-A). An appropriate quantity of HEPES Buffer (pH 7.4) was added to prepare platelet suspension. The number of platelets were determined with SYSMEX® F-820 (Sysmex Co.), then the above-described platelet suspension was diluted with HEPES buffer (pH 7.4) to platelet count at 6×10⁵ cells/μL.
(§2) To the diluted washed platelets, the labeled and non-labeled antibodies were added at final concentrations of 3 nM and 0-1250 nM, respectively, and mixed to obtain platelet count at 3×10⁵ cells/μL. After incubating the mixture on the ice for one hour, the reactant was passed through 30% sucrose/HEPE buffer (pH 7.4) layered column and centrifuged at 12,000 g for 5 min in order to separate the platelets and non-bound antibodies. The radioactivity of each fraction was measured using automatic gamma counter 1470 WIZARD (PerkinElmer Japan). Data was analyzed using GraphPad Prism software (Graph Pad Software, Inc.).

[3] = molecular target: T2, cynomolgus monkey GPVI on cynomolgus …; test: homologous competitive binding of 125I-labelled antibody on washed cynomolgus monkey platelets, n=3, mean±S.E.
Method: as §1, §2

[4] = molecular target: T4, human GPVI extracellular region-human Fc fusion protein (hGPVI-hFc) (human); test: SPR BIACORE 3000 as in Example 5 (the reference itself)
T4 construct: Expressed in COS-1, purified on Protein A; also called GPVI-HHH-hFc; hGPVIHHH-hFc

[5] = molecular target: T4, human GPVI extracellular region-human …; test: ELISA on immobilised hGPVI-hFc; ++ = absorbance 1.0 to 2.0
Method: The hGPVI-hFc prepared by EXAMPLE 1B was diluted with D-PBS to 2 μg/mL and added to immunoplate (Maxisorp, NUNC) at 50 μL/well. After incubation at 37° C. for one hour, the well was washed five times with ion-exchanged water, and D-PBS (pH7.4) containing 2% STABILGUARD® (chemical solutions for stabilizing biological molecules) (Surmodics) was added to each well in 100 μL for blocking. Next, culture supernatant was added to each well and incubated at 37° C. for one hour. After incubation, the well was washed three times with the saline containing 0.05% TWEEN®20 (Polyoxyethylene (20) sorbitan monolaurate). […] After incubation at 37° C. for one hour, washing in a similar manner was performed five times and TMB solution (BIOFX® (reagents for scientific or medical research) was added to each well. After ten minutes at room temperature, the reaction was terminated with 0.5 M sulfuric acid solution. Subsequently, absorbance at 450 nm was measured with the plate spectrophotometer (Multiscan JX, Dainippon Pharmaceutical). As a result, the cell whose culture supernatant reacted to hGPVI-hFc was selected and a cloning with limiting dilution method (“The Introduction to Monoclonal Antibody Experimental Procedure” written by Tamie Andoh and Takeshi Chiba (Kodansha, p97)) was performed. […]

T3 sequence (chain, as listed by the source limits assumed): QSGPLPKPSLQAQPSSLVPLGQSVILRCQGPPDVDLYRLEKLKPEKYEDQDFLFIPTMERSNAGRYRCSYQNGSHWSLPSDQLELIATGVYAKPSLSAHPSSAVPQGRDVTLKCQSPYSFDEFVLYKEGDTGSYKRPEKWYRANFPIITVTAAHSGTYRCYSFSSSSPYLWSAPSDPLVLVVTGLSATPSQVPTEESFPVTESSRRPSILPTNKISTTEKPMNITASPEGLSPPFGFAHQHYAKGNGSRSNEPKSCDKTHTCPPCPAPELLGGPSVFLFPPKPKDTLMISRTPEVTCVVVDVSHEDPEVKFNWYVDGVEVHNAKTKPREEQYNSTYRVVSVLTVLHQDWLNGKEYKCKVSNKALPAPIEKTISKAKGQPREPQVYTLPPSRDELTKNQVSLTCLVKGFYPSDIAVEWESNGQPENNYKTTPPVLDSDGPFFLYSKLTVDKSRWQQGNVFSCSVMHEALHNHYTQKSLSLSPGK

| binding result [1] | Kd [2] [nM] | Kd [3] [nM] | KD (Relative value) [4] | absorbance [5] [od] | Binder |
| --- | --- | --- | --- | --- | --- |
| no binding | 17 | 20 | – | – | cF1232-37-2 (mouse/human chimeric F1232-37-2) (antibody, V domains shown, V regions of F1232-37-2 on human IgG4 (Cgamma4) and human Ckappa constant regions; made in COS-1 (/COS) or CHO (/CHO); both preparations are kept under this one id; also called cF1232-37-2/COS; cF1232-37-2/CHO) VH: VQLQQSGPELVRPGESVKISCKGSGYTFTDYAIHWVKLSHAKSLEWIGVISIYYDDTNYNQKFKGKATMTVDKSSSTAYLELARLTSEDSAIYYCARRRDSSGPYAMDYWGQGTSVTVSS VL: DIVLTQSPASLAVSLGQRATISCRASESVDSYGNSFMHWYQQKPGQPPKLLIYRASNLESGIPARFSGSGSRTDFTLTINPVEADDVATYYCQQSNEDPYTFGGGTKLEIKR |
| no binding | – | – | 1 relative to F1232-37-2 = 1 | 1 to 2 | F1232-37-2 (antibody, V domains shown, mouse hybridoma monoclonal antibody; also called F1232-37-2 antibody; mouse monoclonal antibody F1232-37-2) VH: VQLQQSGPELVRPGESVKISCKGSGYTFTDYAIHWVKLSHAKSLEWIGVISIYYDDTNYNQKFKGKATMTVDKSSSTAYLELARLTSEDSAIYYCARRRDSSGPYAMDYWGQGTSVTVSS VL: DIVLTQSPASLAVSLGQRATISCRASESVDSYGNSFMHWYQQKPGQPPKLLIYRASNLESGIPARFSGSGSRTDFTLTINPVEADDVATYYCQQSNEDPYTFGGGTKLEIKR |
